Read-outs that look alike come from different tables or passages of the source.
How the values were obtained:
human CCR8 [1] = target: T1, human CCR8 (human, UniProt P51685 1-355); assay: flow cytometry, competition with 10 nM AF647-human CCL1 on 293F-hCCR8 cells
T1 construct: whole, on cells; the cell line is named under assay; also called hCCR8

cynomolgus CCR8 [2] = target: T2, cynomolgus CCR8 (cynomolgus monkey); assay: flow cytometry on 293T-cynoCCR8 cells
T2 construct: whole, on cells; the constructs of the cell lines are not tied to it word for word; also called cynoCCR8

human CCR8 [3] = target: T1, human CCR8; assay: flow cytometry on 293F-hCCR8 cells
human CCR8 [4] = target: T1, human CCR8; assay: cell-based or functional assay
human CCR8 [5] = target: T1, human CCR8; assay: cell-based or functional assay; remark: listed apart in the source
human CCR8 [6] = target: T1, human CCR8; assay: flow cytometry on HuT78 cells (endogenous CCR8)
human CCR8 [7] = target: T1, human CCR8; assay: flow cytometry on CHOK1-hCCR8 cells
human CCR8 [8] = target: T1, human CCR8; assay: cell-based or functional assay; remark: listed apart in the source
cynomolgus CCR8 [9] = target: T2, cynomolgus CCR8; assay: flow cytometry on 293T-cynoCCR8 cells; remark: listed apart in the source
human CCR8 [10] = target: T1, human CCR8; assay: cell-based or functional assay; remark: listed apart in the source
human CCR8 [11] = target: T1, human CCR8; assay: flow cytometry on 293F-hCCR8 cells; remark: listed apart in the source
human CCR8 [12] = target: T1, human CCR8; assay: cell-based or functional assay; remark: listed apart in the source
human CCR8 [13] = target: T1, human CCR8; assay: flow cytometry, competition with 10 nM AF647-human CCL1 on 293F-hCCR8 cells; remark: listed apart in the source
human CCR8 [14] = target: T1, human CCR8; assay: cell-based or functional assay; remark: listed apart in the source
human CCR8 [15] = target: T1, human CCR8; assay: cell-based or functional assay; remark: listed apart in the source
human CCR8 [16] = target: T1, human CCR8; assay: cell-based or functional assay; remark: listed apart in the source

T1 sequence (P51685 whole entry): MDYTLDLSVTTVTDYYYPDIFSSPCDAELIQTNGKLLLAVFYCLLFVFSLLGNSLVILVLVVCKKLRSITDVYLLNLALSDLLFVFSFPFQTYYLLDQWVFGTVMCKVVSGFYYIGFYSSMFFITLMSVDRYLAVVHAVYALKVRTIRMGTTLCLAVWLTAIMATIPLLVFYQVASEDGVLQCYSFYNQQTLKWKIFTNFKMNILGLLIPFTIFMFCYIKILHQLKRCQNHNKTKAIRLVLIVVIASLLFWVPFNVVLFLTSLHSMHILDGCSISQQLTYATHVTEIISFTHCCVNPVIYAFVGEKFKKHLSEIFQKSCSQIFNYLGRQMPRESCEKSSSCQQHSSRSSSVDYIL

Row | Binder | IC50 (human CCR8 [1]) [µg/mL] | EC50 (cynomolgus CCR8 [2]) [µg/mL] | EC50 (human CCR8 [3]) [µg/mL] | IC50 of blockade of CCL1-induced β-arrestin recruitment (Tango-H_CCR8-CHO-K1 cells) (human CCR8 [4]) [µg/mL] | IC50 of blockade of CCL1-induced β-arrestin recruitment (human CCR8 [5]) [µg/mL] | EC50 (human CCR8 [6]) [µg/mL] | EC50 (human CCR8 [7]) [µg/mL] | EC50 of activation of Jurkat-human FcγRIIIa(158V)-NFAT with CHOK1-hCCR8 target cells (human CCR8 [8]) [µg/mL] | EC50 (cynomolgus CCR8 [9]) [µg/mL] | EC50 of activation of Jurkat-human FcγRIIIa(158V)-NFAT with 293F-hCCR8 target cells (human CCR8 [10]) [µg/mL] | EC50 (human CCR8 [11]) [µg/mL] | EC50 of activation of Jurkat-human FcγRIIIa(158V)-NFAT with 293F-hCCR8 target cells (human CCR8 [12]) [µg/mL] | IC50 (human CCR8 [13]) [µg/mL] | EC50 of activation of Jurkat-human FcγRIIIa(158V)-NFAT with 293F-hCCR8 target cells (human CCR8 [14]) [µg/mL] | EC50 of ADCC effect (lysis%) by human PBMCs on CHOK1-hCCR8 cells (human CCR8 [15]) [µg/mL] | EC50 of activation of Jurkat-human FcγRIIIa(158V)-NFAT with HuT78 target cells (human CCR8 [16]) [µg/mL]
1 | 559E1B10_mIgG2a (antibody, also called mIgG2a-subclass chimeric antibody 559E1B10) heavy: KVQLQQSGPVLVKPGASVKMSCKASGYTFTDYYVNWMKQNYGKSPEWIGVINPHNGDTRYNQKFKGKATLTVDKSSSTANMELTSLTSGDSAVYYCASWLRRGYYFDSWGQGTTLTVSSAKTTAPSVYPLAPVCGDTTGSSVTLGCLVKGYFPEPVTLTWNSGSLSSGVHTFPAVLQSDLYTLSSSVTVTSSTWPSQSITCNVAHPASSTKVDKKIEPRGPTIKPCPPCKCPAPNLLGGPSVFIFPPKIKDVLMISLSPIVTCVVVDVSEDDPDVQISWFVNNVEVHTAQTQTHREDYNSTLRVVSALPIQHQDWMSGKEFKCKVNNKDLPAPIERTISKPKGSVRAPQVYVLPPPEEEMTKKQVTLTCMVTDFMPEDIYVEWTNNGKTELNYKNTEPVLDSDGSYFMYSKLRVEKKNWVERNSYSCSVVHEGLHNHHTTKSFSRTPGK light: DIVMTQSPATLSVTPGDRVSLSCRASQSISDYLHWYQQKSHESPRLLLKYVSQSISGIPSRFSGSGSGSDFTLTINSVEPEDVGVYYCQNGHSFPLTFGAGTKLELKRADAAPTVSIFPPSSEQLTSGGASVVCFLNNFYPKDINVKWKIDGSERQNGVLNSWTDQDSKDSTYSMSSTLTLTKDEYERHNSYTCEATHKTSTSPIVKSFNRNEC | 0.0649 | 0.0819 | 0.1 | 1.76 |  |  |  |  |  |  |  |  |  |  |  | 
2 | 559E1B10_hzH1L1_hIgG1 (antibody, Humanized, hIgG1/K) heavy: not shown light: EIVLTQSPATLSLSPGERATLSCRASQSISDYLHWYQQKPGQAPRLLLKYVSQSISGIPARFSGSGSGTDFTLTISSLEPEDFAVYYCQNGHSFPLTFGGGTKVEIKRTVAAPSVFIFPPSDEQLKSGTASVVCLLNNFYPREAKVQWKVDNALQSGNSQESVTEQDSKDSTYSLSSTLTLSKADYEKHKVYACEVTHQGLSSPVTKSFNRGEC |  |  |  |  | 28.1 | 15.2 | 0.036 | 0.0265 | 0.0876 | 0.0133 | 0.114 | 0.0421 | 0.15 |  |  | 
3 | 563E10E12_hzH1L0_hIgG1 (antibody, Humanized, hIgG1/K) heavy: not shown light: DIVMTQSPLSLPVTPGEPASISCRSSKSLLHSNGITYLFWYLQKPGQSPQLLIYQMSNLASGVPDRFSGSGSGTDFTLKISRVEAEDVGVYYCAQSLELPLTFGGGTKVEIKRTVAAPSVFIFPPSDEQLKSGTASVVCLLNNFYPREAKVQWKVDNALQSGNSQESVTEQDSKDSTYSLSSTLTLSKADYEKHKVYACEVTHQGLSSPVTKSFNRGEC |  |  |  |  | 1.46 | 0.054 | 0.0376 | 0.0299 | 0.0227 | 0.0135 | 0.103 |  | 0.0852 | 0.0279 | 0.00471 | 0.0409
4 | 563E10E12_hzH1L0_DE (antibody, human IgG1, kappa) heavy: not shown light: DIVMTQSPLSLPVTPGEPASISCRSSKSLLHSNGITYLFWYLQKPGQSPQLLIYQMSNLASGVPDRFSGSGSGTDFTLKISRVEAEDVGVYYCAQSLELPLTFGGGTKVEIKRTVAAPSVFIFPPSDEQLKSGTASVVCLLNNFYPREAKVQWKVDNALQSGNSQESVTEQDSKDSTYSLSSTLTLSKADYEKHKVYACEVTHQGLSSPVTKSFNRGEC |  |  |  |  |  |  |  |  |  | 0.0009 |  |  |  |  | 0.0006 | 0.0083
5 | 563E10E12_hzH1L0_DLE (antibody, human IgG1, kappa) heavy: EVQLVESGGGLVQPGGSLKLSCAASGFNFNAYAMNWVRQASGKGLEWVGRIRSKSNNFATYYADSVTDRFTISRDDSKNTAYLQMNSLKTEDTAVYYCVRHGRRDLLYSMDFWGQGTTVTVSSASTKGPSVFPLAPSSKSTSGGTAALGCLVKDYFPEPVTVSWNSGALTSGVHTFPAVLQSSGLYSLSSVVTVPSSSLGTQTYICNVNHKPSNTKVDKKVEPKSCDKTHTCPPCPAPELLGGPDVFLFPPKPKDTLMISRTPEVTCVVVDVSHEDPEVKFNWYVDGVEVHNAKTKPREEQYNSTYRVVSVLTVLHQDWLNGKEYKCKVSNKALPLPEEKTISKAKGQPREPQVYTLPPSRDELTKNQVSLTCLVKGFYPSDIAVEWESNGQPENNYKTTPPVLDSDGSFFLYSKLTVDKSRWQQGNVFSCSVMHEALHNHYTQKSLSLSPGK light: DIVMTQSPLSLPVTPGEPASISCRSSKSLLHSNGITYLFWYLQKPGQSPQLLIYQMSNLASGVPDRFSGSGSGTDFTLKISRVEAEDVGVYYCAQSLELPLTFGGGTKVEIKRTVAAPSVFIFPPSDEQLKSGTASVVCLLNNFYPREAKVQWKVDNALQSGNSQESVTEQDSKDSTYSLSSTLTLSKADYEKHKVYACEVTHQGLSSPVTKSFNRGEC |  |  |  |  |  |  |  |  |  | 0.0007 |  |  |  |  | 0.00039 | 0.0057
6 | 563E10E12_hzH1L0_AF (antibody, human IgG1, kappa, afucosylated (expressed in ExpiCHO cells with 2F-peracetyl-fucose)) heavy: not shown light: DIVMTQSPLSLPVTPGEPASISCRSSKSLLHSNGITYLFWYLQKPGQSPQLLIYQMSNLASGVPDRFSGSGSGTDFTLKISRVEAEDVGVYYCAQSLELPLTFGGGTKVEIKRTVAAPSVFIFPPSDEQLKSGTASVVCLLNNFYPREAKVQWKVDNALQSGNSQESVTEQDSKDSTYSLSSTLTLSKADYEKHKVYACEVTHQGLSSPVTKSFNRGEC |  |  |  |  |  |  |  |  |  | 0.0009 |  |  |  |  | 0.00031 | 0.011
7 | 563E10E12_hzH1L1_hIgG1 (antibody, Humanized, hIgG1/K) heavy: not shown light: DVVMTQSPLSLPVTPGEPASISCRSSKSLLHSNGITYLFWYLQKPGQSPQLLIYQMSNLASGVPDRFSGSGSGTDFTLKISRVEAEDVGVYYCAQSLELPLTFGGGTKVEIKRTVAAPSVFIFPPSDEQLKSGTASVVCLLNNFYPREAKVQWKVDNALQSGNSQESVTEQDSKDSTYSLSSTLTLSKADYEKHKVYACEVTHQGLSSPVTKSFNRGEC |  |  |  |  | 1.61 | 0.0545 | 0.0423 |  | 0.0264 | 0.0089 | 0.124 |  | 0.0835 | 0.0283 |  | 
8 | 27B9-1G3_hIgG1 (antibody, V domains shown, also called hIgG1-subclass chimeric antibody 27B9-1G3) VH: EIQLQQSGPELEKPGASVKISCKASGYSFTGYNMNWVKKSNGKSLEWIGNIDPYYGGTNYNQKFKGKATLTVDKSSSTAYMQLKSLTSEDSAVYYCARETWFITTGVIKKGFYFDYWGQGTTLTVSS VL: EIVLTQSPTTMAASPGEKITLACSASSIISSNYLHWYQQKPGFSPKLLIYRTSSLASGVPARFSGSGSGTSYSLTIGTMEAEDVATYYCQQGSSIPRTFGGGTKLEIKR | 0.273 | 0.305 | 0.273 | 0.26 |  |  |  |  |  |  | 0.139 |  | 0.0959 |  |  | 
9 | 563E10E12_hIgG1 (antibody, also called hIgG1-subclass chimeric antibody 563E10E12) heavy: not shown light: DVVMTQAAFSNPVTLGTSTSISCRSSKSLLHSNGITYLFWYLQKPGQSPQLLIYQMSNLASGVPDRFSGSGSGTDFTLRISRVEAEDVGVYYCAQSLELPLTFGGGTKLEIKRTVAAPSVFIFPPSDEQLKSGTASVVCLLNNFYPREAKVQWKVDNALQSGNSQESVTEQDSKDSTYSLSSTLTLSKADYEKHKVYACEVTHQGLSSPVTKSFNRGEC | 0.0295 |  | 0.0273 |  | 1.72 |  |  |  | 0.0473 |  | 0.073 |  | 0.0513 | 0.0216 |  | 

Reference: patent EP4624492A1 (Shanghai Hongcheng Biopharmaceutical Co., Ltd., dated 2025)
